Test results taken from patent US20200407750A1.

Tests used:
[1] = molecular target: AAV9.QQNAA capsid mutant (adeno-associated virus 9 (AAV9), mutant); test: cell-based or functional assay
[2] = molecular target: AAV9.WT capsid (AAV9 vector) (adeno-associated virus 9 (AAV9)); test: cell-based or functional assay
[3] = molecular target: AAV9.SAQAA capsid mutant (adeno-associated virus 9 (AAV9), mutant); test: cell-based or functional assay
[4] = molecular target: AAV9.AAQAA capsid mutant (adeno-associated virus 9 (AAV9), mutant); test: cell-based or functional assay
[5] = molecular target: AAV9.RGNRQ capsid mutant (adeno-associated virus 9 (AAV9), mutant); test: cell-based or functional assay
[6] = molecular target: AAV9.TQAAA capsid mutant (adeno-associated virus 9 (AAV9), mutant); test: cell-based or functional assay
[7] = molecular target: AAV9.SAQAN capsid mutant (adeno-associated virus 9 (AAV9), mutant); test: cell-based or functional assay
[8] = molecular target: AAV9.SSNTA capsid mutant (adeno-associated virus 9 (AAV9), mutant); test: cell-based or functional assay
[9] = molecular target: AAV9.RGHRE capsid mutant (adeno-associated virus 9 (AAV9), mutant); test: cell-based or functional assay
[10] = molecular target: AAV9.RGNRQ capsid mutant (adeno-associated virus 9 (AAV9), mutant); test: capsid capture ELISA, as told in the discussion
[11] = molecular target: AAV9.QQNAA capsid mutant (adeno-associated virus 9 (AAV9), mutant); test: capsid capture ELISA, EC50 from dose-response fit
[12] = molecular target: AAV9.WT capsid (AAV9 vector) (adeno-associated virus 9 (AAV9)); test: capsid capture ELISA, EC50 from dose-response fit
[13] = molecular target: AAV9.SAQAA capsid mutant (adeno-associated virus 9 (AAV9), mutant); test: capsid capture ELISA, EC50 from dose-response fit
[14] = molecular target: AAV9.AAQAA capsid mutant (adeno-associated virus 9 (AAV9), mutant); test: capsid capture ELISA, EC50 from dose-response fit
[15] = molecular target: AAV9.RGNRQ capsid mutant (adeno-associated virus 9 (AAV9), mutant); test: capsid capture ELISA, EC50 from dose-response fit
[16] = molecular target: AAV9.TQAAA capsid mutant (adeno-associated virus 9 (AAV9), mutant); test: capsid capture ELISA, EC50 from dose-response fit
[17] = molecular target: AAV9.SAQAN capsid mutant (adeno-associated virus 9 (AAV9), mutant); test: capsid capture ELISA, EC50 from dose-response fit
[18] = molecular target: AAV9.SSNTA capsid mutant (adeno-associated virus 9 (AAV9), mutant); test: capsid capture ELISA, EC50 from dose-response fit
[19] = molecular target: AAV9.RGHRE capsid mutant (adeno-associated virus 9 (AAV9), mutant); test: capsid capture ELISA, EC50 from dose-response fit

Q: What does the source list for PAV9.1 monoclonal antibody?
A: Fold reduction NAb titer [1]: 128 fold; Fold reduction NAb titer [2]: 1 fold; effective NAb titer (NAb assay, transduction of HEK293 cells) (reciprocal dilution) [2]: 164000; Fold reduction NAb titer [3]: 4 fold; Fold reduction NAb titer [4]: 16 fold; Fold reduction NAb titer [5]: 8 fold; Fold reduction NAb titer [6]: 16 fold; Fold reduction NAb titer [7]: 16 fold; Fold reduction NAb titer [8]: 512 fold; Fold reduction NAb titer [9]: > 2048 fold; NAb titer of PAV9.1 (reciprocal dilution) [9]: < 80; fold reduction in binding (relative to WT.AAV9) [10]: 50 fold; Fold increase EC50 (relative to AAV9.WT) [11]: 124 fold; Fold increase EC50 (relative to AAV9.WT) [12]: 1 fold; Fold increase EC50 (relative to AAV9.WT) [13]: 20 fold; Fold increase EC50 (relative to AAV9.WT) [14]: 45 fold; Fold increase EC50 (relative to AAV9.WT) [15]: 96 fold; Fold increase EC50 (relative to AAV9.WT) [16]: 15 fold; Fold increase EC50 (relative to AAV9.WT) [17]: 40 fold; Fold increase EC50 (relative to AAV9.WT) [18]: 264 fold; Fold increase EC50 (relative to AAV9.WT) [19]: 294 fold
